Several values for one entry are separate records, joined by “and”; a condition that tells them apart may be missing. Identical values can stand only once. One block for each binder: values may come before it.
Tests used:
[1] = molecular target: CD3ε on Jurkat-NFAT responder cells (UniProt P07766 23-207); test: cell-based or functional assay
[2] = molecular target: EGFR on SK-BR-3 target cells (UniProt P00533 25-1210, limits assumed); test: cell-based or functional assay
Human EGFR-his [3] = molecular target: T1, Human EGFR-his (human, UniProt P00533 25-645); test: SPR, BEAT®3 captured on Protein G chip, EGFR-his as analyte; sample held at pH 11.2 for 0 h
T1 construct: Soluble his-tagged antigen injected as analyte in SPR; also called hsEGFR; not shown: his tag

Human EGFR-his [4] = molecular target: T1, Human EGFR-his; test: SPR, BEAT®3 captured on Protein G chip, EGFR-his as analyte; sample held at pH 11.2 for 2 h
Human EGFR-his [5] = molecular target: T1, Human EGFR-his; test: SPR, BEAT®3 captured on Protein G chip, EGFR-his as analyte; sample held at pH 11.2 for 4 h
Human EGFR-his [6] = molecular target: T1, Human EGFR-his; test: SPR, BEAT®3 captured on Protein G chip, EGFR-his as analyte; sample held at pH 11.2 for 24 h
Human EGFR-his [7] = molecular target: T1, Human EGFR-his; test: SPR, BEAT®3 sample captured on Protein G chip, EGFR-his as analyte; mean of 4 reference replicates
Human EGFR-his [8] = molecular target: T1, Human EGFR-his; test: SPR, BEAT®3 captured on Protein G chip, EGFR-his as analyte; sample held at pH 11.2 for 0 h; mean of 2
Human EGFR-his [9] = molecular target: T1, Human EGFR-his; test: SPR, BEAT®3 captured on Protein G chip, EGFR-his as analyte; sample held at pH 11.2 for 2 h; mean of 2
Human EGFR-his [10] = molecular target: T1, Human EGFR-his; test: SPR, BEAT®3 captured on Protein G chip, EGFR-his as analyte; sample held at pH 11.2 for 4 h; mean of 2
Human EGFR-his [11] = molecular target: T1, Human EGFR-his; test: SPR, BEAT®3 captured on Protein G chip, EGFR-his as analyte; sample held at pH 11.2 for 24 h; mean of 2
human OX40 [12] = molecular target: T2, human OX40 (human, UniProt P43489 29-214, limits assumed); test: SPR (Biacore), mean KD; Ab1 after 1 h at pH 11.2
T2 construct: The construct used in the Biacore assay is not described; also called OX40R; OX40 receptor
T2 sequence (looked up): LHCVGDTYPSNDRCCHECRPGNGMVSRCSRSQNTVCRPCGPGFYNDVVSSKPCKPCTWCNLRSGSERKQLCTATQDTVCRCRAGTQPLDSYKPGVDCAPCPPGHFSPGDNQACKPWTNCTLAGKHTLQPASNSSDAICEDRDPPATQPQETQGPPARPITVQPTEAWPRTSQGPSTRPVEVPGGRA

human FcγR3a [13] = molecular target: T3, human FcγR3a (human, UniProt P08637 17-208, limits assumed); test: SPR (Biacore), mean KD; Ab1 after 1 h at pH 11.2
T3 construct: The construct and allotype (V158/F158) used in the Biacore assay are not described; also called FcgR3a

human OX40 [14] = molecular target: T2, human OX40; test: SPR (Biacore), mean KD; Ab1 after 2 h at pH 11.2
human FcγR3a [15] = molecular target: T3, human FcγR3a; test: SPR (Biacore), mean KD; Ab1 after 2 h at pH 11.2
human OX40 [16] = molecular target: T2, human OX40; test: SPR (Biacore), mean KD; Ab1 brought to pH 11.2 and neutralized at once (t0)
human FcγR3a [17] = molecular target: T3, human FcγR3a; test: as above
human OX40 [18] = molecular target: T2, human OX40; test: SPR (Biacore), mean KD; Ab1 protein A eluate without high pH treatment (reference)
human FcγR3a [19] = molecular target: T3, human FcγR3a; test: as above
human CD38 [20] = molecular target: T4, human CD38 (human, UniProt P28907 43-300, limits assumed); test: binding affinity assay; sample after S/D treatment
T4 construct: also called hsCD38; cluster of differentiation 38

human CD38 [21] = molecular target: T4, human CD38; test: binding affinity assay; sample after 0.8M Arg, pH 4.0
human CD38 [22] = molecular target: T4, human CD38; test: binding affinity assay; sample after 0.8M Arg, pH 5.5
human CD38 [23] = molecular target: T4, human CD38; test: binding affinity assay; reference sample, no treatment
human CD38 [24] = molecular target: T4, human CD38; test: binding affinity assay; sample after high pH treatment
human CD38 [25] = molecular target: T4, human CD38; test: surface plasmon resonance; mean KD; high pH hold time 0 h
human CD38 [26] = molecular target: T4, human CD38; test: surface plasmon resonance; mean KD; high pH hold time 1 h
human CD38 [27] = molecular target: T4, human CD38; test: surface plasmon resonance; mean KD; high pH hold time 2 h
human CD38 [28] = molecular target: T4, human CD38; test: binding affinity assay; sample after S/D treatment, against RS
human CD38 [29] = molecular target: T4, human CD38; test: binding affinity assay; sample after 0.8M Arg, pH 4.0, against RS
human CD38 [30] = molecular target: T4, human CD38; test: binding affinity assay; sample after 0.8M Arg, pH 5.5, against RS
human CD38 [31] = molecular target: T4, human CD38; test: binding affinity assay; sample after high pH treatment, against RS
human CD38 [32] = molecular target: T4, human CD38; test: surface plasmon resonance; mean KD; PA eluate without high pH treatment

Chain of CD3ε on Jurkat-NFAT responder cells (P07766 23-207): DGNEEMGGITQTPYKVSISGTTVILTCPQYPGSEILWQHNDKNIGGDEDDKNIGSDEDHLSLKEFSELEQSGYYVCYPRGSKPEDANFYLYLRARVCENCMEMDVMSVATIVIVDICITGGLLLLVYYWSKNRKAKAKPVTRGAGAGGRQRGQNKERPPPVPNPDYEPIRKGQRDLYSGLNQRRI
T3 sequence (P08637 17-208 limits assumed): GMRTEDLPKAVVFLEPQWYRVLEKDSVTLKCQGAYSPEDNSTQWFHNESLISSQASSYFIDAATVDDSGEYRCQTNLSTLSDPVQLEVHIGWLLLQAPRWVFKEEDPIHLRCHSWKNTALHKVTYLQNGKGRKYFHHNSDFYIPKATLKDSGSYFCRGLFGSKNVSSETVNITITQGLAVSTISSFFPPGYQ

Relative potency (%) (Jurkat-NFAT luciferase reporter, EC50reference/EC50sample x 100, reference High pH t0) [1]: 97% and 85% and 67% | Relative potency (%) (Jurkat-NFAT luciferase reporter, EC50reference/EC50sample x 100, reference High pH t0) [2]: 97% and 85% and 67% | Relative KD R1 (Human EGFR-his [3]): 0.988 ratio to reference | Relative KD R1 (Human EGFR-his [4]): 1.02 ratio to reference | Relative KD R1 (Human EGFR-his [5]): 1.11 ratio to reference | Relative KD R1 (Human EGFR-his [6]): 1.17 ratio to reference | Average rel KD (Human EGFR-his [7]): 1 ratio to reference | Average rel KD (Human EGFR-his [8]): 0.98 ratio to reference | Average rel KD (Human EGFR-his [9]): 1.02 ratio to reference | Average rel KD (Human EGFR-his [10]): 1.09 ratio to reference | Average rel KD (Human EGFR-his [11]): 1.15 ratio to reference
B1: BEAT®3 (bispecific antibody, human IgG1, kappa, L234A L235A)
chain 1: EVQLVESGGGLVQPGGSLRLSCAASGFTFNTYAMNWVRQAPGKGLEWVARIRSKYNNYATYYADSVKSRFTISRDDSKNTLYLQMNSLRAEDTAVYYCVRHGNFGNSYVSYFAYWGQGTTVTVSSGGGGSGGGGSGGGGSEIVVTQSPATLSVSPGERATLSCRSSTGAVTESNYANWVQEKPGQAFRGLIGGANKRAPGVPARFSGSLSGDEATLTISSLQSEDFAVYYCALFYSNTWVFGQGTKLEIKGGGGTQVQLQESGPGLVKPSETLSLTCTVSGGSVSSGDYYWTWIRQSPGKGLEWIGHIYYSGNTNYNPSLKSRLTISIDTSKTQFSLKLSSVTAADTAIYYCVRDRVTGAFDIWGQGTMVTVSSASTKGPSVFPLAPSSKSTSGGTAALGCLVKDYFPEPVTVSWNSGALTSGVHTFPAVLQSSGLYSLSSVVTVPSSSLGTQTYICNVNHKPSNTKVDKKVEPKSCDKTHTCPPCPAPEAAGGPSVFLFPPKPKDTLMISRTPEVTCVVVDVSHEDPEVQFKWYVDGVEVHNAKTKPREEQYNSTFRVVSVLTVLHQDWLNGKEYKCKVSNKALPAPIEKTISKTKGQPREPAVYTLPPSREEMTKNQVKLVCLVTGFYPSDIAVEWESSGQPENNYYTTPPMLDSDGSFSLVSWLNVDKSRWQQGNIFSCSVMHEALHNRFTQKSLSLSPG
chain 2: not shown
chain 3: DKTHTCPPCPAPEAAGGPSVFLFPPKPKDTLMISRTPEVTCVVVDVSHEDPEVKFNWYVDGVEVHNAKTKPREEQYNSTYRVVSVLTVLHQDWLNGKEYKCKVSNKALPAPIEKTISKAKGQPREPEVATFPPSRDELTKNQVTLVCLVTGFYPSDIAVEWESNGQPENNYKTDPPLLESDGSFALSSRLRVDKSRWQQGNVFSCSVMHEALHNHYTQKSLSLSPG

Kd (human OX40 [12]): 207 nM | Kd (human FcγR3a [13]): 744 nM | Kd (human OX40 [14]): 224 nM | Kd (human FcγR3a [15]): 638 nM | Kd (human OX40 [16]): 229 nM | Kd (human FcγR3a [17]): 760 nM | Kd (human OX40 [18]): 198 nM | Kd (human FcγR3a [19]): 689 nM
B2: Ab1 (antibody, human IgG1, kappa)
chain 1: not shown
chain 2: EIVLTQSPATLSLSPGERATLSCRASSSVSYMHWYQQKPGQAPRPWIYATSNRATGIPARFSGSGSGTDYTLTISSLEPEDFAVYYCQQWSSNPWTFGQGTKVEIKRTVAAPSVFIFPPSDEQLKSGTASVVCLLNNFYPREAKVQWKVDNALQSGNSQESVTEQDSKDSTYSLSSTLTLSKADYEKHKVYACEVTHQGLSSPVTKSFNRGEC
notes: The samples PA eluate, t0, t1 and t2 are the same antibody before and after incubation at pH 11.2 for 0, 1 and 2 h; also called humanized IgG1; PA eluate

Kd (human CD38 [20]): 0.341 nM | koff (human CD38 [20]): 0.000376 s⁻¹ | kon (human CD38 [20]): 1.11e+06 M⁻¹ s⁻¹ | Kd (human CD38 [21]): 0.507 nM | koff (human CD38 [21]): 0.000521 s⁻¹ | kon (human CD38 [21]): 1.03e+06 M⁻¹ s⁻¹ | Kd (human CD38 [22]): 0.439 nM | koff (human CD38 [22]): 0.000459 s⁻¹ | kon (human CD38 [22]): 1.05e+06 M⁻¹ s⁻¹ | % deviation EC50 (human CD38 [23]): 0% | Kd (human CD38 [23]): 0.442 nM | koff (human CD38 [23]): 0.000457 s⁻¹ | kon (human CD38 [23]): 1.03e+06 M⁻¹ s⁻¹ | Kd (human CD38 [24]): 0.467 nM | koff (human CD38 [24]): 0.000483 s⁻¹ | kon (human CD38 [24]): 1.04e+06 M⁻¹ s⁻¹ | Kd (human CD38 [25]): 0.504 nM | Kd (human CD38 [26]): 0.547 nM | Kd (human CD38 [27]): 0.485 nM | % deviation EC50 (human CD38 [28]): -15.4% | % deviation EC50 (human CD38 [29]): 3.5% | % deviation EC50 (human CD38 [30]): 0.7% | % deviation EC50 (human CD38 [31]): 1.7% | Kd (human CD38 [32]): 0.483 nM
B3: BEAT®2 (bispecific antibody, human IgG1, kappa, L234A L235A)
chain 1: not shown
chain 2: QVTLKESGPTLVKPTQTLTLTCTFSGLSLSTSGKGVGWIRQPPGKALEWLAHIWWDDDKRYNPALKSRLTITKDTSKNQVVLTMTNMDPVDTATYYCARIELGRSYVMDYWGQGTLVTVSSASTKGPSVFPLAPSSKSTSGGTAALGCLVKDYFPEPVTVSWNSGALTSGVHTFPAVLQSSGLYSLSSVVTVPSSSLGTQTYICNVNHKPSNTKVDKKVEPKSCDKTHTCPPCPAPEAAGGPSVFLFPPKPKDTLMISRTPEVTCVVVDVSHEDPEVQFKWYVDGVEVHNAKTKPREEQYNSTFRVVSVLTVLHQDWLNGKEYKCKVSNKALPAPIEKTISKTKGQPREPAVYTLPPSREEMTKNQVKLVCLVTGFYPSDIAVEWESSGQPENNYYTTPPMLDSDGSFSLVSWLNVDKSRWQQGNIFSCSVMHEALHNRFTQKSLSLSPG
chain 3: not shown

Source: patent US20240002434A1 (ICHNOS SCIENCES, published 2024)
